Legend:
[1] = K-562 cytotoxicity assay (MTT); assay type: cell-based, human; details: human, K-562 cells, 100 uM, MTT absorbance
Protocol: (§1) The K-562 cell line (CRL-243, ATCC) has attained widespread use as a highly sensitive in vitro target for cytotoxicity assays. K-562 blasts are multipotential, hematopoietic malignant cells that spontaneously differentiate into recognizable progenitors of the erythrocytic, granulocytic and monocytic series (Lozzio, B B et al., Proc. Soc. Exp. Biol. Med. 166: 546-550, 1981).
(§2) K562 cells were plated at 5,000 cells/well in 96-well tissue culture clusters (Costar) in DMEM phenol-free growth medium (Life Technologies) supplemented with pyruvate and 10% serum (HyClone). Next day, human recombinant ZCYTO18 (Example 19), BSA control or retinoic acid (known to be cytotoxic to K562 cells) were added. Seventy-two hours later, the vital stain MTT (Sigma, St Louis, Mo.), a widely used indicator of mitochondrial activity and cell growth, was added to the cells at a final concentration of 0.5 mg/ml. MTT is converted to a purple formazan derivative by mitochondrial dehydrogenases. Four hours later, converted MTT was solubilized by adding an equal volume of acidic isopropanol (0.04N HCl in absolute isopropanol) to the wells. Absorbance was measured at 570 nm, with background subtraction at 650 nm. In this experimental setting, absorbance reflects cell viability. Results shown in Table 7 are expressed as % cytotoxicity.

ZCYTO18 = target: T1, ZCYTO18 (Homo sapiens, UniProt Q9GZX6); details: commonly owned PCT/US00/32703; cited from earlier work
T1 sequence (Q9GZX6 34-179): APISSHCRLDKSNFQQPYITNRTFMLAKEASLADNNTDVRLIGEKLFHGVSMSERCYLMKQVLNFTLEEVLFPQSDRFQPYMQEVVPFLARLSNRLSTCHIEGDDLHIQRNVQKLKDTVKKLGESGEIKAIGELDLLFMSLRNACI

[2] = tested on: BaF3/CRF2-4/zcytor11 cells; test: Alamar Blue proliferation assay, BaF3/CRF2-4/zcytor11 cells; assay type: cell-based, murine; details: for proliferative response (in words): 0.06-50 ng/ml, media without IL-3
Protocol: BaF3/CRF2-4/zcytor11 cells were spun down and washed in the complete media, described in Example 21A above, but without mIL-3 (hereinafter referred to as “mIL-3 free media”). The cells were spun and washed 3 times to ensure the removal of the mIL-3. Cells were then counted in a hemacytometer. Cells were plated in a 96-well format at 5000 cells per well in a volume of 100 μl per well using the mIL-3 free media.
Proliferation of the BaF3/CRF2-4/zcytor11 cells was assessed using ZCYTO18-CEE protein diluted with mIL-3 free media to 50, 10, 2, 1, 0.5, 0.25, 0.13, 0.06 ng/ml concentrations. 100 μl of the diluted protein was added to the BaF3/CRF2-4/zcytor11 cells. The total assay volume is 200 μl. The assay plates were incubated at 37° C., 5% CO2 for 3 days at which time Alamar Blue (Accumed, Chicago, Ill.) was added at 20 μl/well. Plates were again incubated at 37° C., 5% CO2 for 24 hours. Alamar Blue gives a fluourometric readout based on number of live cells, and is thus a direct measurement of cell proliferation in comparison to a negative control. […]. Plates were read on the Finax™ plate reader (Molecular Devices Sunnyvale, Calif.) using the SoftMax™ Pro program, at wavelengths 544 (Excitation) and 590 (Emmission). […] The response, as measured, was approximately 15-fold over background at the high end of 50 ng/ml down to a 2-fold induction at the low end of 0.06 ng/ml.

K-562 cells = test: K-562 cytotoxicity assay (MTT); assay type: cell-based, human; details: 72 hours, MTT absorbance
Protocol: as §1, §2

BaF3/CRF2-4 cells = test: Alamar Blue proliferation assay, BaF3/CRF2-4 cells; assay type: cell-based, murine; details: mIL-3 free media
Protocol: BaF3, an interleukin-3 (IL-3) dependent pre-lymphoid cell line derived from murine bone marrow (Palacios and Steinmetz, Cell 41: 727-734, 1985; Mathey-Prevot et al., Mol. Cell. Biol. 6: 4133-4135, 1986), was maintained in complete media (RPMI medium (JRH Bioscience Inc., Lenexa, Kans.) supplemented with 10% heat-inactivated fetal calf serum, 2 ng/ml murine IL-3 (mIL-3) (R & D, Minneapolis, Minn.), 2 mM L-glutaMax-1™ (Gibco BRL), 1 mM Sodium Pyruvate (Gibco BRL), and PSN antibiotics (GIBCO BRL)). Prior to electroporation, CRF2-4/pZP7P was prepared and purified using a Qiagen Maxi Prep kit (Qiagen) as per manufacturer's instructions. […]
BaF3/CRF2-4/zcytor11 cells were spun down and washed in the complete media, described in Example 21A above, but without mIL-3 (hereinafter referred to as “mIL-3 free media”). […] Cells were then counted in a hemacytometer. […]
Proliferation of the BaF3/CRF2-4/zcytor11 cells was assessed using ZCYTO18-CEE protein diluted with mIL-3 free media to 50, 10, 2, 1, 0.5, 0.25, 0.13, 0.06 ng/ml concentrations. […] Alamar Blue gives a fluourometric readout based on number of live cells, and is thus a direct measurement of cell proliferation in comparison to a negative control. […] Plates were read on the Finax™ plate reader (Molecular Devices Sunnyvale, Calif.) using the SoftMax™ Pro program, at wavelengths 544 (Excitation) and 590 (Emmission). […]

BaF3 wild type cells = test: Alamar Blue proliferation assay, BaF3 wild type cells; assay type: cell-based, murine; details: mIL-3 free media

## CC1=C(/C=C/C(C)=C/C=C/C(C)=C/C(=O)O)C(C)(C)CCC1 [Retinoic acid, reference compound]
[1]
  cytotoxicity at 72 h, 100 µM: 62%

B1: zcytor16: naturally-expressed soluble receptor antagonist of ZCYTO18 (SEQ ID NO:32, SEQ ID NO:33) (protein, listed as Homo sapiens)
chain: MMPKHCFLGFLISFFLTGVAGTQSTHESLKPQRVQFQSRNFHNILQWQPGRALTGNSSVYFVQYKIYGQRQWKNKEDCWGTQELSCDLTSETSDIQEPYYGRVRAASAGSYSEWSMTPRFTPWWETKIDPPVMNITQVNGSLLVILHAPNLPYRYQKEKNVSIEDYYELLYRVFIINNSLEKEQKVYEGAHRAVEIEALTPHSSYCVVAEIYQPMLDRRSQRSEERCVEIP
ZCYTO18
  binding of ZCYTO18 and antagonism of its activity: bind ZCYTO18 and antagonize its activity

B2: ZCYTO18: novel four-helical-bundle cytokine polypeptide, SEQ ID NO:3; annotated in the literature as IL-TIF (protein, listed as Homo sapiens)
chain: MGTLATSCLLLLALLVQGGAAAPISSHCRLDKSNFQQPYITNRTFMLAKEASLADNNTDVRLIGEKLFHGVSMSERCYLMKQVLNFTLEEVLFPQSDRFQPYMQEVVPFLARLSNRLSTCHIEGDDLHIQRNVQKLKDTVKKLGESGEIKAIGELDLLFMSLRNACI
[2]
  proliferative response (in words): dose-dependent proliferative response
K-562 cells; 100 ng/ml
  % Cytotoxicity: 16.2%
K-562 cells; 300 ng/ml
  % Cytotoxicity: 32%

B3: ZCYTO18-CEE: ZCYTO18 polypeptide containing C-terminal GluGlu (EE) tag (SEQ ID NO:14), purified from BHK 570 or Sf9 cells (protein)
chain: APISSHCRLDKSNFQQPYITNRTFMLAKEASLADNNTDVRLIGEKLFHGVSMSERCYLMKQVLNFTLEEVLFPQSDRFQPYMQEVVPFLARLSNRLSTCHIEGDDLHIQRNVQKLKDTVKKLGESGEIKAIGELDLLFMSLRNACIEYMPME
BaF3/CRF2-4 cells
  proliferation in response to ZCYTO18-CEE: did not proliferate
[2]; 50 ng/ml, mIL-3 free media, 3 days then Alamar Blue
  proliferative response over background: approximately 15 fold
[2]
  proliferative response (in words): dose-dependent proliferative response
BaF3 wild type cells
  proliferation in response to ZCYTO18-CEE: did not proliferate
